Experimental data taken from PMC7864079, “Molecular basis for histone H3 “K4me3-K9me3/2” methylation pattern readout by Spindlin1” (The Journal of Biological Chemistry, 2021).

Target: double Tudor domains of JMJD2A
Assay: ITC; reader domains (BPTF, RAG2, ZCWPW1, SGF29, JMJD2A) titrated with H3 peptides; 25°C; One Set of Binding Sites model

Kd [nM]	Substance
600	H3_(1–20) K4me3 peptide (from UniProt P68431 2-21)
900	H3_(1–20) “K4me3-K9me3” peptide (from UniProt P68431 2-21)
